Values of other authors in paper PMC8232796.
Like-named read-outs stand apart in the source and are kept apart here.

Key:
Ubiquitin (Homo sapiens) [1] = target: Ubiquitin (Homo sapiens) (UniProt P0CG48)
[2] = target: HIV-1 Gag p6 peptide p6 (Human immunodeficiency virus 1) (UniProt O93182)
Ubiquitin (Homo sapiens) [3] = target: Ubiquitin (Homo sapiens) (UniProt P0CG48); remark: listed apart in the source
Ubiquitin (Homo sapiens) [4] = target: Ubiquitin (Homo sapiens) (UniProt P0CG48); remark: listed apart in the source

Sequence of Tsg101 UEV UEV (Q99816 1-148): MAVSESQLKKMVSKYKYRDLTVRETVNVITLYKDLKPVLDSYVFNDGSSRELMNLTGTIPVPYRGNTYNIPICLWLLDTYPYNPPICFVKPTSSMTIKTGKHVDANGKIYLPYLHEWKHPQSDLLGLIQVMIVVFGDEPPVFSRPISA
Sequence of hMms2 UEV (Q15819 2-145): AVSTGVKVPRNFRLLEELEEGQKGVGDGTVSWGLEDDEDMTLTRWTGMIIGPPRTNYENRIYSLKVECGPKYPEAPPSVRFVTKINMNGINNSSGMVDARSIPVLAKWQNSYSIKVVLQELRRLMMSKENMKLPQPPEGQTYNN
Sequence of UbcH5 (P51668 whole entry): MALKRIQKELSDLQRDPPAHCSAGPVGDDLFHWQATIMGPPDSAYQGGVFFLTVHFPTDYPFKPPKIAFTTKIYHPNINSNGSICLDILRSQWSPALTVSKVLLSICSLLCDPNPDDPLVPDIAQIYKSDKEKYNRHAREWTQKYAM

Substance: Tsg101 UEV UEV (from UniProt Q99816)
- Kd (Ubiquitin (Homo sapiens) [1]): 500 µM
- Kd [2]: 27 µM

Substance: UbcH5 (from UniProt P51668)
- Kd (Ubiquitin (Homo sapiens) [3]): 300 µM

Substance: hMms2 UEV (from UniProt Q15819)
- Kd (Ubiquitin (Homo sapiens) [4]): 100 µM
